First the molecules themselves.
B1: Adenosine receptor A2a, P29274 (parent)
chain: MPIMGSSVYITVELAIAVLAILGNVLVCWAVWLNSNLQNVTNYFVVSLAAADIAVGVLAIPFAITISTGFCAACHGCLFIACFVLVLTQSSIFSLLAIAIDRYIAIRIPLRYNGLVTGTRAKGIIAICWVLSFAIGLTPMLGWNNCGQPKEGKNHSQGCGEGQVACLFEDVVPMNYMVYFNFFACVLVPLLLMLGVYLRIFLAARRQLKQMESQPLPGERARSTLQKEVHAAKSLAIIVGLFALCWLPLHIINCFTFFCPDCSHAPLWLMYLAIVLSHTNSVVNPFIYAYRIREFRQTFRKIIRSHVLRQQEPFKAAGTSARVLAAHGSDGEQVSLRLNGHPPGVWANGSAPHPERRPNGYALGLVSGGSAQESQGNTGLPDVELLSHELKGVCPEPPGLDDPLAQDGAGVS

“And” between values parts separate entries of the source, which are not always exact repeats. Identical values can stand only once.

Variants of B1 are the subject of the series. To be noted: Homo sapiens; pH 7.4; Thermal; Activity; Tris 50 mM; NaCl 0.4 M; structure 4UHR; whole UniProt chain shown.

The term Tm denotes the temperature at the midpoint of the melting transition. Take P260A L267A: the Tm was 31 °C and 30 °C. On to K122A L235A, for which the Tm was found to be 37 °C and the “change of melting temperature, mutant - wild type (higher = more stable)” value (“change of melting temperature, mutant” for short) is 6 °C. In the same order, the values of A231L L235A V239A are 38 °C and 7 °C. For L167A A184L R199A L241A L272A, in that order: 29 °C and 9 °C. In the same order, the values of Q210A E219A are 31 °C and 11 °C. For L167A A184L L272A, the Tm is 27 °C and the “change of melting temperature, mutant” value was 7 °C.

For the variant A54L V57A, the Tm is 31 °C and the “change of melting temperature, mutant” value is 0 °C. As to A203L A204L, the Tm was 40 °C and 42 °C; the “change of melting temperature, mutant” value was 9 °C and 10 °C. As to G114A G118A, the Tm was 31 °C and the “change of melting temperature, mutant” value was determined as 11 °C.

Regarding A54L T88A A204L V239A, the “change of melting temperature, mutant” value was 10 °C and 15 °C. Turning to A184L A203L, the Tm came out at 30 °C and the “change of melting temperature, mutant” value came to 10 °C. For L167A A184L R199A H230A, in that order: 31 °C and 11 °C. For S223A T224A Q226A K227A, in that order: 24 °C and 4 °C.

Turning to T279A N284A, the Tm was found to be 29 °C and the “change of melting temperature, mutant” value was determined as 9 °C. For the variant A54L V239A, the Tm is 40 °C and 42 °C; the “change of melting temperature, mutant” value was 9 °C and 10 °C.

(Values after FireProtDB (doi:10.1073/pnas.0804396105).)
